Measurements from the supplement of paper PMC9170038.

Assays:
[1] = test system: MS2 coat protein; assay: apparent KD of MS2 coat protein, switch OFF state (with FMN for OFF switches, without FMN for ON switches); designed switch direction (-1 OFF switch, 1 ON switch): -1; higher = weaker reporter binding; details: FMN input: 0 or 200 uM; Eterna round: R93 (includes R88 designs)
Summary of the method: (§1)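 Illumina sequencing clusters were used for on-chip transcription of designed RNA switches. Titration with SNAP-549-labelled MS2 coat protein followed, in twofold steps from 0.7 or 1.5 nM to 3 µM in 100 mM Tris-HCl pH 7.5, 80 mM KCl, 4 mM MgCl2, without or with constant ligand. Apparent KD is each design's median of fits to normalised cluster binding curves.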

[2] = test system: MS2 coat protein; assay: apparent KD of MS2 coat protein, switch ON state; designed switch direction (-1 OFF switch, 1 ON switch): -1; higher = weaker reporter binding; details: FMN input: 0 or 200 uM; Eterna round: R93 (includes R88 designs)
Summary of the method: as §1

| Sequence | apparent KD of MS2 coat protein [1] [nM] | apparent KD of MS2 coat protein [2] [nM] |
| --- | --- | --- |
| AAGAACGUAGGAUAUACAUGAGGAUCACCCAUGUAAAAGAAAGAGGGAAAAGAGAAAAGUAGAAGGACGAAGAA [Cleopatra II] | 38.2 | 26.1 |
| AAAUUAGGAGGAUAUACAUGAGGAUCACCCAUGUGACGAUGUUACUGCAUGAAGUCAAGUAGAAGGUCUAAGAA [Cearar] | 44.2 | 31.7 |
| GAAACUGGAGGAUAUACGUACAUGUCAAAAGACGUGAAGGGACAUGAGGAUCACCCAUGUAGAAGGCUAGAAAG [Mat - Exclusion 2 - JL mod - D97] | 21.9 | 70.6 |
| AAUAAGAGAGGAUAUACUAAAGAAAUGAAAAGGGAUAAAGAACAUGAGGAUCACCCAUGUAGAAGGCUCAAUAA [Khyan] | 40.3 | 24.3 |
| AUGUACCUAGGAUAUACAUGAGGAUCACCCAUGUUCCGGGAGCAAUCAAGUUAAUAUUGUAGAAGGAGGUGAAA [JR_Exc003_Sub314] | 28.4 | 16 |
| AAAAAGUGAGGAUAUACAUGAGGAUCACCCAUGUUAAAAAAGGAAAAAAAAAAAAAAUGUAGAAGGCGCAAAAA [water's exclusion 3] | 36 | 36.9 |
| AAGGGACAUGAGGAUCACCCAUGUUAGGAUAUGCUAUGGAAAAUAAAAAUAAAACAUAGCAGAAGGAACAAAAA [Denovo 8] | 61.8 | 39.2 |
| AAAACGUGAGGAUAUGCACCAAAAAAGGUAUUUCGGGUACGACAUGAGGAUCACCCAUGUAGAAGGCACGAAAA [Frodo Flailing 13 - Jieux - Exclusion 2] | 19.8 | 22.8 |
| GAAAAACAUGAGGAUCACCCAUGUCAGGAUAUACAAAAUAAAAUAAAAAUAAAAUAAAGUAGAAGGGACAAAAG [Mat - Same state - Mayanna Mod - D107] | 49 | 36.7 |
| AAAAAGCUAGGAUAUACAUGAAAAAAAAAAAAGUAAAAAAAACAUGAGGAUCACCCAUGUAGAAGGAGCAAAAA [water's exclusion 2 last] | 37 | 40.4 |
| GAAAAACAUGAGGAUCACCCAUGUCAGGAUAUCGAAAAAAAUAAAAAAGAAAAGAAAACGAGAAGGGACAAAAG [Mat - Same state - Mayanna Mod - D112] | 47.1 | 31.6 |
| AACAGGUCAGGAUAUGUGGAAAAAAUAAAAAAAAAUAAAACACAGAAGGGACAUGAGGAUCACCCAUGUAAACA [Mat - Exclusion 4 - Mayanna - D143] | 56.8 | 49.3 |
| AAGAAGUGAGGAUAUCGUGCUCGUCACAAAAGUGAUGAGUACGAGAAGGCACAUGAGGAUCACCCAUGUAAAGA [Opal 36] | 52.6 | 40.1 |
| AAAAAGUUAGGAUAUACAUGAGGAUCACCCAUGUGCACAUAUGGAGAAUAUGGUGGUAGUAGAAGGGACAAAAA [EX2 Malc#17] | 69.7 | 33.9 |
| CACGUACAUGAGGAUCACCCAUGUUAGGAUAUGCCGGGUAAGAGAAAACUAAAAAUCCGCAGAAGGGACGAAAC [Bilbo Confounded 15 - Jieux - Exclusion 1] | 33.8 | 32 |
| AACUGGGCAGGAUAUACAUGAGGAUCACCCAUGUAAAGAAAAGAAAGAUCCGAGGAAAGUAGAAGGGCCUGGAA [Variant 4 of Mod 1 of Ex3 sub 3, by Tesla's Dusciple Round 1] | 91.3 | 55.6 |
| AAAAAACAUGAGGAUCACCCAUGUAAGGAUAUGCUAUGGAAAAUAAAAAUAAAACAUAGCAGAAGGUACACCAA [Amethyst 81] | 27.3 | 18.9 |
| AAAAAGUCAGGAUAUAGAAAAGGUCACGAAAGUGACAAAGGCUAGAAGGGACAUGAGGAUCACCCAUGUAAAAA [Mat - Mod of Eli] | 28.8 | 53.5 |
